Reference: article PMC5793882 (Cell, 2018)

Target: the molecule itself
Experiment: negative-stain electron microscopy

B1: Drosophila Arc1 protein (natural protein, UniProt Q7K1U0 1-254, looked up)
chain: MAQLTQMTNEQLRELIEAVRAAAVGAAGSAAAAGGADASRGKGNFSACTHSFGGTRDHDVVEEFIGNIETYKDVEGISDENALKGISLLFYGMASTWWQGVRKEATTWKEAIALIREHFSPTKPAYQIYMEFFQNKQDDHDPIDTFVIQKRALLAQLPSGRHDEETELDLLFGLLNIKYRKHISRHSVHTFKDLLEQGRIIEHNNQEDEEQLATAKNTRGSKRTTRCTYCSFRGHTFDNCRKRQKDRQEEQHEE
**Q.** Does B1 bind?
**A.** Result: binds
